Patent US20020102257A1 (published 2002)

Columns and labels:
[1] = biological target: RSV F protein, C-terminal truncated, secreted from recombinant baculovirus (respiratory syncytial virus) (UniProt P03420); experiment: SPR (BIAcore), F protein amine-coupled, Kd = kd/ka
[2] = biological target: RSV F protein, C-terminal truncated, secreted from recombinant baculovirus (respiratory syncytial virus) (UniProt P03420); experiment: SPR (BIAcore), F protein amine-coupled, Mab injected 25-300 nM
[3] = biological target: T1, RSV F protein, C-terminal truncated, secreted from recombinant baculovirus (respiratory syncytial virus, UniProt P03420 26-524); experiment: as above
T1 construct: also called RSV F glycoprotein; RSV F antigen

| Molecule | Kd [1] [nM] | koff [2] [s⁻¹] | kon [2] [M⁻¹ s⁻¹] | t1/2 [2] [h] | t1/2 [3] [h] |
| --- | --- | --- | --- | --- | --- |
| chimeric 1129 antibody (murine 1129 VH and VL joined to human C-gamma 1 and C-kappa) | 1.5 | 7.5e-05 | 50000 | 2.6 | – |
| murine monoclonal antibody MAb 1129 | 11.4 | – | 35000 | 0.48 | – |
| humanized 1129 antibody (CDR-grafted MAb 1129, human COR VH / K102 VL frameworks, human IgG1 kappa) (antibody, V domains shown) VH: QVTLRESGPALVKPTQTLTLTCTFSGFSLSTSGMSVGWIRQPPGKALEWLADIWWDDKKDYNPSLKSRLTISKDTSKNQVVLKVTNMDPADTATYYCARSMITNWYFDVWGAGTTVTVSS VL: DIQMTQSPSTLSASVGDRVTITCKCQLSVGYMHWYQQKPGKAPKLWIYDTSKLASGVPSRFSGSGSGTEFTLTISSLQPDDFATYYCFQGSGYPFTFGGGTKLEIK | – | – | – | – | 2.8 |
| murine monoclonal antibody MAb 1308F (antibody, V domains shown) VH: EVQKQQSGAELVRPGALVKLSCKASGFNIKDYYIYWVKQRPEQGLEWIGWIDPENGNTVFDPLFQGKASITSDTSSNTAYLQLSSLTSEDTAVYYCAYYGTSSFDFWGQGTTLTVSS VL: DIKMTQSPSSMYVSLGERVTITCKASQDINRYLNWFQQKPGKSPKTLIHRANRLVDGVPSRFSGSGSGQEYSLTISSLEFEDMGIYYCLQFHEFPYTFGGGTKLEIL | – | – | – | – | 5.1 |
| humanized 1308F antibody (CDR-grafted MAb 1308F, human HV3 VH / K102 VL frameworks, human IgG1 kappa) (antibody, V domains shown) VH: QVQLVQSGAEVKKPGASVKVSCKASGFNIKDYYIYWVRQAPGQGLEWIGWIDPENGNTVFDPKFNGRVTMTRDTSTSTVYMELSSLRSEDTAVYYCAYYGTSSFDFWGQGTTLTVSS VL: DIQMTQSPSTLSASVGDRVTITCKASQDINRYLNWYQQKPGKAPKLLIYRANRLVDGVPSRFSGSGSGTEFTLTISSLQPDDFATYYCLQFHEFPYTFGGGTKLEIL | – | – | – | – | 3.5 |
